From patent US9605266

Target: C-C chemokine receptor type 5 (CCR5) (Homo sapiens) (UniProt P51681)
Experiment: flow
Conditions: 2'-F pyrimidines (2'-F-C, 2'-F-U), negative control

Sequence of C-C chemokine receptor type 5 (CCR5) (Homo sapiens) (P51681 whole entry): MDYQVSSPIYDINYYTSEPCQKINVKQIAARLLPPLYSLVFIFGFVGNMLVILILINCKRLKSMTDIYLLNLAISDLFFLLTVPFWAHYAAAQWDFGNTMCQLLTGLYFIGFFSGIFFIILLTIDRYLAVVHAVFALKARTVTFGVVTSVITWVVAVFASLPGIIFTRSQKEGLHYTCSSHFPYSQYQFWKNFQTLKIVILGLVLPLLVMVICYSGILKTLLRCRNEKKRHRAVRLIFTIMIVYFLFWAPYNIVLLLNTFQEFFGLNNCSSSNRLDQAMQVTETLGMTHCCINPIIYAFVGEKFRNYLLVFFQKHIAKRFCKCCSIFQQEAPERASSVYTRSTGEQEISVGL

GGGAGGACGAUGCGGNNNNNNNNNNNNNNNNNNNNCAGACGACUCGCCCGA [0-RNA pool (starting library)]
binding signal (% Cy3-positive cells) (untreated 0.076%): 0.808 | binding signal (% Cy3-positive cells) (untreated 0.191%): 7.63
